{"source": "paper PMC6391921", "target": "full-length H7 HA trimer (influenza A virus (H7))", "assay": "BLI", "note": "pKd: −log10 of the molar value.", "data": [{"substance": "CT149 Fab", "values": [{"measurement": "pKd", "value": 8.43}, {"measurement": "koff", "value": 0.0031, "unit": "s⁻¹"}, {"measurement": "kon", "value": 360000, "unit": "M⁻¹ s⁻¹"}]}]}
